Laboratory results published in patent US20250296995A1.

What follows are substances tested against recombinant Plasmodium falciparum circumsporozoite protein (CSP) (Plasmodium falciparum) (UniProt P19597) (assay: cell-based or functional assay).
Sequence of recombinant Plasmodium falciparum circumsporozoite protein (CSP) (Plasmodium falciparum) (P19597 21-375 limits assumed): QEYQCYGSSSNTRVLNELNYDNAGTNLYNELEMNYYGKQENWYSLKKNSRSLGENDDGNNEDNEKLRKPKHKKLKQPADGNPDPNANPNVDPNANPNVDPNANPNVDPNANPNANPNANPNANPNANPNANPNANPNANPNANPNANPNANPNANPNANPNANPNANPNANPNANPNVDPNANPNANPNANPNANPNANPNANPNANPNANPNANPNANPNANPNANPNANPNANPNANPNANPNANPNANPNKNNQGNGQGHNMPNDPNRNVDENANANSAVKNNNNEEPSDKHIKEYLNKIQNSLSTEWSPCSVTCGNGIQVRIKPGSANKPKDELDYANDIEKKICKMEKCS

Row | Substance | Geo Mean EC50 (ug/ml), ADNKA, Donor 1 [µg/mL] | Geo Mean EC50 (ug/ml), ADNKA, Donor 2 [µg/mL] | Geo Mean EC50 (ug/ml), ADNKA, Donor 3 [µg/mL] | Geo Mean EC50 (ug/ml), ADNKA, Donor 4 [µg/mL]
1 | 317 DE-LS (antibody) | 0.0027 | 0.0022 | 0.0276 | 0.0111
2 | L9 LS (antibody) | 0.038 | 0.514 | 0.0887 | 0.0286

Next, values leading:

Row | Geo Mean EC50 (ug/ml), ADNKA, Donor 1 [µg/mL] | Geo Mean EC50 (ug/ml), ADNKA, Donor 2 [µg/mL] | Geo Mean EC50 (ug/ml), ADNKA, Donor 3 [µg/mL] | Geo Mean EC50 (ug/ml), ADNKA, Donor 4 [µg/mL] | Substance
3 | 0.0567 | 0.231 | 0.151 | 0.0709 | 317 LS (antibody)
4 | 0.0277 | 0.143 | 0.104 | 0.0643 | CIS43 LS (antibody)

The substances below were run against human FcRn (human) (UniProt P55899) (assay: SPR, human FcRn, pH 6.0).

Row | Kd [nM] | Substance
5 | 174 | L9 (antibody)
6 | 102 | hIgG1 WT control (antibody)

Each substance was assayed against recombinant Plasmodium falciparum circumsporozoite protein (CSP) (Plasmodium falciparum) (UniProt P19597) (assay: SPR, recombinant CSP; geometric mean, n=2).

Row | Kd [nM] | Substance
7 | 0.04 | L9 (antibody)
